Data: patent US20180273587A1 (AILERON THERAPEUTICS, published 2018)
Starred links: 1 amine or outer side, 2 acyl side, 3 side chain; linkers in the order of their positions; H or OH if unused. Positions of bridges follow the written chain, without caps; N, C: chain ends. Non-standard residues stand in square brackets, D forms with d. St = two pentenyl-alanine olefin side chains, each crosslinked to another residue (stitch), C=CCCCC(CCCC=C)(N[*:1])C(=O)[*:2]; R8 = C=CCCCCCC[C@@](C)(N)C(=O)O; R5 = C=CCCC[C@@](C)(N)C(=O)O; S5 = C=CCCC[C@](C)(N)C(=O)O

B1: Cross-linked peptide #1 (peptide)
peptide: Ac-IWIAQALR[R8]IGDEFN[S5]YYA-NH2
modifications: staple 9-16
SMILES: CC[C@H](C)[C@H](NC(C)=O)C(=O)N[C@@H](Cc1c[nH]c2ccccc12)C(=O)N[C@H](C(=O)N[C@@H](C)C(=O)N[C@@H](CCC(N)=O)C(=O)N[C@@H](C)C(=O)N[C@@H](CC(C)C)C(=O)N[C@@H](CCCNC(=N)N)C(=O)N[C@]1(C)CCCCCCC=CCCC[C@@](C)(C(=O)N[C@@H](Cc2ccc(O)cc2)C(=O)N[C@@H](Cc2ccc(O)cc2)C(=O)N[C@@H](C)C(N)=O)NC(=O)[C@H](CC(N)=O)NC(=O)[C@H](Cc2ccccc2)NC(=O)[C@H](CCC(=O)O)NC(=O)[C@H](CC(=O)O)NC(=O)CNC(=O)[C@H]([C@@H](C)CC)NC1=O)[C@@H](C)CC
B2: Cross-linked peptide #3 (peptide)
peptide: Ac-IWIAAALR[R8]IGDEFN[S5]YYA-NH2
modifications: staple 9-16
SMILES: CC[C@H](C)[C@H](NC(C)=O)C(=O)N[C@@H](Cc1c[nH]c2ccccc12)C(=O)N[C@H](C(=O)N[C@@H](C)C(=O)N[C@@H](C)C(=O)N[C@@H](C)C(=O)N[C@@H](CC(C)C)C(=O)N[C@@H](CCCNC(=N)N)C(=O)N[C@]1(C)CCCCCCC=CCCC[C@@](C)(C(=O)N[C@@H](Cc2ccc(O)cc2)C(=O)N[C@@H](Cc2ccc(O)cc2)C(=O)N[C@@H](C)C(N)=O)NC(=O)[C@H](CC(N)=O)NC(=O)[C@H](Cc2ccccc2)NC(=O)[C@H](CCC(=O)O)NC(=O)[C@H](CC(=O)O)NC(=O)CNC(=O)[C@H]([C@@H](C)CC)NC1=O)[C@@H](C)CC
B3: Cross-linked peptide #2 (peptide)
peptide: Ac-IWIAQALR[R8]IGDQFN[S5]YYA-NH2
modifications: staple 9-16
SMILES: CC[C@H](C)[C@H](NC(C)=O)C(=O)N[C@@H](Cc1c[nH]c2ccccc12)C(=O)N[C@H](C(=O)N[C@@H](C)C(=O)N[C@@H](CCC(N)=O)C(=O)N[C@@H](C)C(=O)N[C@@H](CC(C)C)C(=O)N[C@@H](CCCNC(=N)N)C(=O)N[C@]1(C)CCCCCCC=CCCC[C@@](C)(C(=O)N[C@@H](Cc2ccc(O)cc2)C(=O)N[C@@H](Cc2ccc(O)cc2)C(=O)N[C@@H](C)C(N)=O)NC(=O)[C@H](CC(N)=O)NC(=O)[C@H](Cc2ccccc2)NC(=O)[C@H](CCC(N)=O)NC(=O)[C@H](CC(=O)O)NC(=O)CNC(=O)[C@H]([C@@H](C)CC)NC1=O)[C@@H](C)CC
B4: Cross-linked peptide #4 (peptide)
peptide: Ac-IWIAAALR[R8]IGDQFN[S5]YYA-NH2
modifications: staple 9-16
SMILES: CC[C@H](C)[C@H](NC(C)=O)C(=O)N[C@@H](Cc1c[nH]c2ccccc12)C(=O)N[C@H](C(=O)N[C@@H](C)C(=O)N[C@@H](C)C(=O)N[C@@H](C)C(=O)N[C@@H](CC(C)C)C(=O)N[C@@H](CCCNC(=N)N)C(=O)N[C@]1(C)CCCCCCC=CCCC[C@@](C)(C(=O)N[C@@H](Cc2ccc(O)cc2)C(=O)N[C@@H](Cc2ccc(O)cc2)C(=O)N[C@@H](C)C(N)=O)NC(=O)[C@H](CC(N)=O)NC(=O)[C@H](Cc2ccccc2)NC(=O)[C@H](CCC(N)=O)NC(=O)[C@H](CC(=O)O)NC(=O)CNC(=O)[C@H]([C@@H](C)CC)NC1=O)[C@@H](C)CC
B5: Cross-linked peptide #6 (peptide)
peptide: IWIAQALXAIGDQFNAYYA
modifications: not fully specified; N-terminal Ac; Cit at residue 8 (column 153); $r8 at residue 9 (column 154) and $ at residue 16 (column 161), crosslinked; C-terminal NH2
B6: SEQ ID NO: 1760 (peptide)
peptide: Ac-IWIAAALR[R8]IGDAFN[S5]YYD-NH2
modifications: staple 9-16
SMILES: CC[C@H](C)[C@H](NC(C)=O)C(=O)N[C@@H](Cc1c[nH]c2ccccc12)C(=O)N[C@H](C(=O)N[C@@H](C)C(=O)N[C@@H](C)C(=O)N[C@@H](C)C(=O)N[C@@H](CC(C)C)C(=O)N[C@@H](CCCNC(=N)N)C(=O)N[C@]1(C)CCCCCCC=CCCC[C@@](C)(C(=O)N[C@@H](Cc2ccc(O)cc2)C(=O)N[C@@H](Cc2ccc(O)cc2)C(=O)N[C@@H](CC(=O)O)C(N)=O)NC(=O)[C@H](CC(N)=O)NC(=O)[C@H](Cc2ccccc2)NC(=O)[C@H](C)NC(=O)[C@H](CC(=O)O)NC(=O)CNC(=O)[C@H]([C@@H](C)CC)NC1=O)[C@@H](C)CC
B7: SEQ ID NO: 1764 (peptide)
peptide: Ac-IWIAAALR[R8]IGDAFN[S5]YYH-NH2
modifications: staple 9-16
SMILES: CC[C@H](C)[C@H](NC(C)=O)C(=O)N[C@@H](Cc1c[nH]c2ccccc12)C(=O)N[C@H](C(=O)N[C@@H](C)C(=O)N[C@@H](C)C(=O)N[C@@H](C)C(=O)N[C@@H](CC(C)C)C(=O)N[C@@H](CCCNC(=N)N)C(=O)N[C@]1(C)CCCCCCC=CCCC[C@@](C)(C(=O)N[C@@H](Cc2ccc(O)cc2)C(=O)N[C@@H](Cc2ccc(O)cc2)C(=O)N[C@@H](Cc2c[nH]cn2)C(N)=O)NC(=O)[C@H](CC(N)=O)NC(=O)[C@H](Cc2ccccc2)NC(=O)[C@H](C)NC(=O)[C@H](CC(=O)O)NC(=O)CNC(=O)[C@H]([C@@H](C)CC)NC1=O)[C@@H](C)CC
B8: SEQ ID NO: 1766 (peptide)
peptide: Ac-IWIAAALR[R8]IGDAFN[S5]YYK-NH2
modifications: staple 9-16
SMILES: CC[C@H](C)[C@H](NC(C)=O)C(=O)N[C@@H](Cc1c[nH]c2ccccc12)C(=O)N[C@H](C(=O)N[C@@H](C)C(=O)N[C@@H](C)C(=O)N[C@@H](C)C(=O)N[C@@H](CC(C)C)C(=O)N[C@@H](CCCNC(=N)N)C(=O)N[C@]1(C)CCCCCCC=CCCC[C@@](C)(C(=O)N[C@@H](Cc2ccc(O)cc2)C(=O)N[C@@H](Cc2ccc(O)cc2)C(=O)N[C@@H](CCCCN)C(N)=O)NC(=O)[C@H](CC(N)=O)NC(=O)[C@H](Cc2ccccc2)NC(=O)[C@H](C)NC(=O)[C@H](CC(=O)O)NC(=O)CNC(=O)[C@H]([C@@H](C)CC)NC1=O)[C@@H](C)CC
B9: SEQ ID NO: 1762 (peptide)
peptide: Ac-IWIAAALR[R8]IGDAFN[S5]YYQ-NH2
modifications: staple 9-16
SMILES: CC[C@H](C)[C@H](NC(C)=O)C(=O)N[C@@H](Cc1c[nH]c2ccccc12)C(=O)N[C@H](C(=O)N[C@@H](C)C(=O)N[C@@H](C)C(=O)N[C@@H](C)C(=O)N[C@@H](CC(C)C)C(=O)N[C@@H](CCCNC(=N)N)C(=O)N[C@]1(C)CCCCCCC=CCCC[C@@](C)(C(=O)N[C@@H](Cc2ccc(O)cc2)C(=O)N[C@@H](Cc2ccc(O)cc2)C(=O)N[C@@H](CCC(N)=O)C(N)=O)NC(=O)[C@H](CC(N)=O)NC(=O)[C@H](Cc2ccccc2)NC(=O)[C@H](C)NC(=O)[C@H](CC(=O)O)NC(=O)CNC(=O)[C@H]([C@@H](C)CC)NC1=O)[C@@H](C)CC
B10: SEQ ID NO: 1763 (peptide)
peptide: Ac-IWIAAALR[R8]IGDAFN[S5]YYS-NH2
modifications: staple 9-16
SMILES: CC[C@H](C)[C@H](NC(C)=O)C(=O)N[C@@H](Cc1c[nH]c2ccccc12)C(=O)N[C@H](C(=O)N[C@@H](C)C(=O)N[C@@H](C)C(=O)N[C@@H](C)C(=O)N[C@@H](CC(C)C)C(=O)N[C@@H](CCCNC(=N)N)C(=O)N[C@]1(C)CCCCCCC=CCCC[C@@](C)(C(=O)N[C@@H](Cc2ccc(O)cc2)C(=O)N[C@@H](Cc2ccc(O)cc2)C(=O)N[C@@H](CO)C(N)=O)NC(=O)[C@H](CC(N)=O)NC(=O)[C@H](Cc2ccccc2)NC(=O)[C@H](C)NC(=O)[C@H](CC(=O)O)NC(=O)CNC(=O)[C@H]([C@@H](C)CC)NC1=O)[C@@H](C)CC
B11: SEQ ID NO: 1765 (peptide)
peptide: Ac-IWIAAALR[R8]IGDAFN[S5]YYR-NH2
modifications: staple 9-16
SMILES: CC[C@H](C)[C@H](NC(C)=O)C(=O)N[C@@H](Cc1c[nH]c2ccccc12)C(=O)N[C@H](C(=O)N[C@@H](C)C(=O)N[C@@H](C)C(=O)N[C@@H](C)C(=O)N[C@@H](CC(C)C)C(=O)N[C@@H](CCCNC(=N)N)C(=O)N[C@]1(C)CCCCCCC=CCCC[C@@](C)(C(=O)N[C@@H](Cc2ccc(O)cc2)C(=O)N[C@@H](Cc2ccc(O)cc2)C(=O)N[C@@H](CCCNC(=N)N)C(N)=O)NC(=O)[C@H](CC(N)=O)NC(=O)[C@H](Cc2ccccc2)NC(=O)[C@H](C)NC(=O)[C@H](CC(=O)O)NC(=O)CNC(=O)[C@H]([C@@H](C)CC)NC1=O)[C@@H](C)CC
B12: SEQ ID NO: 1761 (peptide)
peptide: Ac-IWIAAALR[R8]IGDAFN[S5]YYE-NH2
modifications: staple 9-16
SMILES: CC[C@H](C)[C@H](NC(C)=O)C(=O)N[C@@H](Cc1c[nH]c2ccccc12)C(=O)N[C@H](C(=O)N[C@@H](C)C(=O)N[C@@H](C)C(=O)N[C@@H](C)C(=O)N[C@@H](CC(C)C)C(=O)N[C@@H](CCCNC(=N)N)C(=O)N[C@]1(C)CCCCCCC=CCCC[C@@](C)(C(=O)N[C@@H](Cc2ccc(O)cc2)C(=O)N[C@@H](Cc2ccc(O)cc2)C(=O)N[C@@H](CCC(=O)O)C(N)=O)NC(=O)[C@H](CC(N)=O)NC(=O)[C@H](Cc2ccccc2)NC(=O)[C@H](C)NC(=O)[C@H](CC(=O)O)NC(=O)CNC(=O)[C@H]([C@@H](C)CC)NC1=O)[C@@H](C)CC

target: T1, MCL-1 (UniProt Q07820 172-327, limits assumed); assay: Ki (Table 6); method not stated
T1 construct: Target of the Ki columns; also called Myeloid cell leukemia 1
T1 sequence (Q07820 172-327 limits assumed): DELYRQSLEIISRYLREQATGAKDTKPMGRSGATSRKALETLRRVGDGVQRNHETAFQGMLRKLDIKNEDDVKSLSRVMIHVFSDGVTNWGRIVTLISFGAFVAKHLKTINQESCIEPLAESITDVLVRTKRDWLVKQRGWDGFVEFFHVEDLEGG

Ki [nM]	Binder
1.8	B1
1	B2
5.2	B3
6	B4

target: T2, BCL-XL (UniProt Q07817 1-209); assay: Ki (Table 6); method not stated
T2 construct: Target of the Ki columns
T2 sequence (Q07817 1-209): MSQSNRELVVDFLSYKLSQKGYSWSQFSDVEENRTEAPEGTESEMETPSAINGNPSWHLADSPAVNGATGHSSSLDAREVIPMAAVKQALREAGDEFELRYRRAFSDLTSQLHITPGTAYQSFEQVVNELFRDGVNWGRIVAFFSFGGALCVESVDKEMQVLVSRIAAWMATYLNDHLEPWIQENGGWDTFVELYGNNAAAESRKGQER

Ki [nM]	Binder
28.8	B5
1.4	B1
1	B2
12	B3
4	B4

target: T3, BCL-2 (UniProt P10415 1-217, limits assumed); assay: Ki (Table 6); method not stated
T3 construct: Target of the Ki columns
T3 sequence (P10415 1-217 limits assumed): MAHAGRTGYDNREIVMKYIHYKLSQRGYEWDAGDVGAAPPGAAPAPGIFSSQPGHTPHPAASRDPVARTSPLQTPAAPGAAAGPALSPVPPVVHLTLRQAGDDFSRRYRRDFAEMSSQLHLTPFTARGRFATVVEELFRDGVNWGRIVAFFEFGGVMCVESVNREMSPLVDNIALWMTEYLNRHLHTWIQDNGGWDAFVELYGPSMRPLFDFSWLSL

Ki [nM]	Binder
88.2	B5
3.2	B1
6	B2
67	B3
22	B4

target: T1, MCL-1; assay: Ki; method not stated; unit not printed (nM per Table 6)

Ki [nM]	Binder
2.2	B6
10.6	B7
6.6	B8
4.6	B9
4.7	B10
18.5	B11
1.4	B12
11.6	Ac-IWIAQALR[R8]IGDEFN[St]YYA[R5]A-NH2 (staple 16-20, 9-16) [SEQ ID NO: 1784]

target: T2, BCL-XL; assay: as above

Ki [nM]	Binder
116	B6
73.8	B7
66.3	B8
41.1	B9
36	B10
186	B11
45.4	B12
24.2	Ac-IWIAQALR[R8]IGDEFN[St]YYA[R5]A-NH2 (staple 16-20, 9-16) [SEQ ID NO: 1784]

target: T3, BCL-2; assay: as above

Ki [nM]	Binder
138	B6
98.8	B7
43.4	B8
64.7	B9
62.4	B10
142	B11
56.4	B12
57.7	Ac-IWIAQALR[R8]IGDEFN[St]YYA[R5]A-NH2 (staple 16-20, 9-16) [SEQ ID NO: 1784]
